# Source: PMC2836565
# T1: Vts1 (Saccharomyces cerevisiae, UniProt Q08831 1-523)
# T1 sequence: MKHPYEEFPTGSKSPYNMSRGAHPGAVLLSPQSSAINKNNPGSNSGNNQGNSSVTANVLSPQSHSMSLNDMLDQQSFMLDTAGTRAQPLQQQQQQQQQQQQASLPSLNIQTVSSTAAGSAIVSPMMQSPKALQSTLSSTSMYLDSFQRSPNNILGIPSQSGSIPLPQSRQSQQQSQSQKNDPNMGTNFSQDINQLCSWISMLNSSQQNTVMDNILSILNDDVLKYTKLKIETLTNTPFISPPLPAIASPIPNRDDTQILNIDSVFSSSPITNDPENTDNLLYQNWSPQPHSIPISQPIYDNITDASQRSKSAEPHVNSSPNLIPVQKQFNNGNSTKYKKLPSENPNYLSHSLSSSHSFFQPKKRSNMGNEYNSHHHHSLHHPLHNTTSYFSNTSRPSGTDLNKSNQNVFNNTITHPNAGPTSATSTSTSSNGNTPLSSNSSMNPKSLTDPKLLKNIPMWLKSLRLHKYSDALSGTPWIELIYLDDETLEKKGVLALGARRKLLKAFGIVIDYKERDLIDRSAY
# T2: Vts1-A498Q (Saccharomyces cerevisiae, UniProt Q08831 1-523, A498Q)
# T2 sequence: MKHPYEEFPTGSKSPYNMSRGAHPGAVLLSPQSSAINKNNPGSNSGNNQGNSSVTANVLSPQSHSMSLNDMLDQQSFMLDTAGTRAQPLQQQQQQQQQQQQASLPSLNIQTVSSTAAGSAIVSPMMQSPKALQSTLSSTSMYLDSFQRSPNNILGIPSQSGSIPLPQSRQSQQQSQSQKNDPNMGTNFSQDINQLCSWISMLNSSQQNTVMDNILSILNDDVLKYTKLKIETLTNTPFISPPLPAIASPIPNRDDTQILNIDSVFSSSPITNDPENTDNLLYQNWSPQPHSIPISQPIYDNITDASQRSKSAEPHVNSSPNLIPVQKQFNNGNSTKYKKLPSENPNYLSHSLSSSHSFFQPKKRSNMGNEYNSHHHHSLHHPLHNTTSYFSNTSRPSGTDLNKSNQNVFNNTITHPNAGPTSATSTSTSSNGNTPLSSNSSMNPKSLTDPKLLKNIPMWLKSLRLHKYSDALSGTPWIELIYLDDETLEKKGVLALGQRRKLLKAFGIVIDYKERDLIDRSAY
# Experiments:
# Vts1 [1] = biological target: T1, Vts1; assay: EMSA
# Vts1-A498Q = biological target: T2, Vts1-A498Q; assay: EMSA
# Vts1 [2] = biological target: T1, Vts1; assay: competition
Binder,binding result (Vts1 [1]),binding result (Vts1-A498Q),binding result (Vts1 [2])
GCUCGAGGCUCUGGCAGCCUCGAGC (structured_RNA) [SRE-RNA],binds,no binding,
dsDNA 50-bp (dsDNA) DNA 1: GAAAACATTATTAATGGCGTCGAGCTAGGCACAAGGCGAACTGCTAACGG DNA 2: CCGTTAGCAGTTCGCCTTGTGCCTAGCTCGACGCCATTAATAATGTTTTC,,,binds
